Positions count from the first letter of the chain named.
B1: H2A2 variant IgG1 (antibody, V domains shown)
VH: EVQLVESGGGLVQPGGSLRLSCAASGYSFTGHWMNWVRQAPGKGLEWVGMIHPADAETRYNQKFKDRFTISVDKSKNTLYLQMNSLRAEDTAVYYCARGIYFYGTTYFDYWGQGTLVTVSS
VL: DIQMTQSPSSLSASVGDRVTITCRASKTISKYLAWYQQKPGKAPKLLIYSGSTLQSGVPSRFSGSGSGTDFTLTISSLQPEDFATYYCQQHNEYPLTFGQGTKVEIK
B2: H2A3 variant IgG1 (antibody, V domains shown)
VH: B1 VH with H52A, A54S
VL: B1 VL
B3: HisH52Ala variant IgG1 (antibody, V domains shown)
VH: B1 VH with H52A, A54S, A56S
VL: B1 VL
B4: SerH53Ala variant IgG1 (antibody, V domains shown)
VH: B1 VH with A56S
VL: B1 VL
B5: SerH55Ala variant IgG1 (antibody, V domains shown)
VH: B1 VH with A54S
VL: B1 VL
B6: ArgH58Ala variant IgG1 (antibody, V domains shown)
VH: B1 VH with A54S, A56S, R59A
VL: B1 VL
B7: GlnH61Ala variant IgG1 (antibody, V domains shown)
VH: B1 VH with A54S, A56S, Q62A
VL: B1 VL
B8: LysH62Ala variant IgG1 (antibody, V domains shown)
VH: B1 VH with A54S, A56S, K63A
VL: B1 VL
B9: LysH64Ala variant IgG1 (antibody, V domains shown)
VH: B1 VH with A54S, A56S, K65A
VL: B1 VL
B10: AspH65Ala variant IgG1 (antibody, V domains shown)
VH: B1 VH with A54S, A56S, D66A
VL: B1 VL
B11: LysH73Arg variant IgG1 (antibody, V domains shown)
VH: B1 VH with A54S, A56S, K74R
VL: B1 VL

Legend:
[1] = biological target: T1, rhesus CD11a (rhesus) (UniProt H9Z8N3); assay: binding to rhesus peripheral blood lymphocytes
T1 sequence: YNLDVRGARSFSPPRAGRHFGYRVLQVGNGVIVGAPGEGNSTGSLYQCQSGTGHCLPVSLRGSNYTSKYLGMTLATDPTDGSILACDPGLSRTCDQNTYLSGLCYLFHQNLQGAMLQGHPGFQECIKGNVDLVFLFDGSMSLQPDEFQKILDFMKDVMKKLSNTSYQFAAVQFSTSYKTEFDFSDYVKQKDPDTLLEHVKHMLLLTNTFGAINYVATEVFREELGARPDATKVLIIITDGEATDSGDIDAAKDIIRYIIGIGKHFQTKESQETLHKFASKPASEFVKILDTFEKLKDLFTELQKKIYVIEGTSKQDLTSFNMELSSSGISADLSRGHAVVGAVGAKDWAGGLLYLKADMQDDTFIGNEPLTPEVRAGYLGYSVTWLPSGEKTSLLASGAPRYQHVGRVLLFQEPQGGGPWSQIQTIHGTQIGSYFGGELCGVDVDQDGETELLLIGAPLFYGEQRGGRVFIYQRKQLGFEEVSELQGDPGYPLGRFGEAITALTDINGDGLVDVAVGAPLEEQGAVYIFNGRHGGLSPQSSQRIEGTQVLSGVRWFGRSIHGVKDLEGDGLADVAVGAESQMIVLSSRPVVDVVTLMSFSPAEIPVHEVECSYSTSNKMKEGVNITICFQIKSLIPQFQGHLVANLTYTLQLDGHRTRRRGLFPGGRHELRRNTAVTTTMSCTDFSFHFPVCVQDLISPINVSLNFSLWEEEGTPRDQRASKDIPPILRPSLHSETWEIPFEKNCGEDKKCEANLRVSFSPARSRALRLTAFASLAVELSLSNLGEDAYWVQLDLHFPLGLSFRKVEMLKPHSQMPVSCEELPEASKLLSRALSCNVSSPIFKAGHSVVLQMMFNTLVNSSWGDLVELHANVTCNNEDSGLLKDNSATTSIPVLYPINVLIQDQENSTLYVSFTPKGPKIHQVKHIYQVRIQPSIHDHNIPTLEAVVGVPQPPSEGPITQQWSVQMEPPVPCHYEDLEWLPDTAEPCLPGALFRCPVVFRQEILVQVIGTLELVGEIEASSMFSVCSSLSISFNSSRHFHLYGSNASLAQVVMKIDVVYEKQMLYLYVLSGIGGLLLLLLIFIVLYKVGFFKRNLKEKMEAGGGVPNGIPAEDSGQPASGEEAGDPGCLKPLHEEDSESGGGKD

[2] = biological target: T2, human CD11a (human) (UniProt P20701); assay: FACScan, Jurkat cells
T2 sequence (looked up): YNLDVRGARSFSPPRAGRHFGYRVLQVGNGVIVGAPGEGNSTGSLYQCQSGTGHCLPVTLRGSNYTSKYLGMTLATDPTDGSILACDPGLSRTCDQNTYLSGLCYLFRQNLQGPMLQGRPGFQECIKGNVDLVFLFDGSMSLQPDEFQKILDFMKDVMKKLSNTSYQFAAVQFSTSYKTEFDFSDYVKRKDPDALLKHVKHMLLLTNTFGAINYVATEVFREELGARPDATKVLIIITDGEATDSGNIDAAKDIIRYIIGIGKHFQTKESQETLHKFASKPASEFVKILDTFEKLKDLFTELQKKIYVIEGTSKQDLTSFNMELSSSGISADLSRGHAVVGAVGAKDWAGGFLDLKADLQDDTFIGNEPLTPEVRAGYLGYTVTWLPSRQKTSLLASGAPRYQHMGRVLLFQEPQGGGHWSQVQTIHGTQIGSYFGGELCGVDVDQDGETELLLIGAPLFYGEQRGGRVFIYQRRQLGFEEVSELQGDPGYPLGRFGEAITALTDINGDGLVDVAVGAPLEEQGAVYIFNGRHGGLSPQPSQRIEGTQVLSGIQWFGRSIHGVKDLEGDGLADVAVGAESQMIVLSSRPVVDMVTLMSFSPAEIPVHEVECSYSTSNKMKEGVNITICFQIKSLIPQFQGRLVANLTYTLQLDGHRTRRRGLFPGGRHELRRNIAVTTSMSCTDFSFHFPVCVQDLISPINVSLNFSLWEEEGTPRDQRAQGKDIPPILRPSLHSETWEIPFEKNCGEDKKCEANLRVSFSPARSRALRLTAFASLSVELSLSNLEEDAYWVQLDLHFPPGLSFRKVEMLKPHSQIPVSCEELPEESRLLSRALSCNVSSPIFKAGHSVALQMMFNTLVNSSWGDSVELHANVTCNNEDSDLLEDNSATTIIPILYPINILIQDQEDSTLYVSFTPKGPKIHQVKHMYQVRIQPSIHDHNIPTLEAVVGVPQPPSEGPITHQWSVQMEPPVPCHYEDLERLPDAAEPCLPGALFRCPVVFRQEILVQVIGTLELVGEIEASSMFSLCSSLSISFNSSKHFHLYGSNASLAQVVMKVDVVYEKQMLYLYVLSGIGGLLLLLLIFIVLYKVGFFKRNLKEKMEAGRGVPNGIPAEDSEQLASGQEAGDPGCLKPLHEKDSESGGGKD

Binder	Var.EC50/HuIgG1 EC50 [1]	Var.EC50/HuIgG1 EC50 [2]
B1	1.1	1.9
B2	1.3	4.6
B3	0.7	1.5
B4	0.7	1.8
B5	1.3	1.3
B6	3.3	1.1
B7	5.3	4.1
B8	4.9	1.8
B9	1.2	2.5
B10	1.1	0.8
B11	5.5	4.6
